# Experimental data: PMC13503762 (Nature Communications, 2026)
# B1: long conformation Fab (lcFab) (Fab, V domains shown)
# VH: EVQLQQSGAELVRPGSSVKISCKGSGYVFSNYWMNWVKQRPGQGLEWIGQIYPGDGDTNYNGKFKGKATLTADKSSSTAYMQLSSLTSEDSAVYFCASGYLGENYVMDFWGQGTSVTVSS
# VL: DIVLTQSPASLTVSLGQRATISCRASESVDSFGNSFMHWYQQKPGQPPKLLIYRASNLESGIPARFSGSGSRTDFTLTINPVEADDVATYYCQQSSEDPYTFGGGTKLEIK
# notes: also called Fab targeting M_(long)
# Target: SARS-CoV-2 M protein (purified, in LMNG/CHS detergent) (SARS-CoV-2, UniProt P0DTC5)
# Assay: cryo-EM structure
# Details: both partners purified
binder,measurement,value
B1,binding result,binds
